Key:
Test in all cases: co-IP with anti-FLAG, mass spectrometry; lysate of cells with N-FLAG B3GNT2
[1] = molecular target: T1, MAGT1 (human, UniProt Q9H0U3 30-335, limits assumed)
T1 construct: also called NP_115497.4
T1 sequence (looked up): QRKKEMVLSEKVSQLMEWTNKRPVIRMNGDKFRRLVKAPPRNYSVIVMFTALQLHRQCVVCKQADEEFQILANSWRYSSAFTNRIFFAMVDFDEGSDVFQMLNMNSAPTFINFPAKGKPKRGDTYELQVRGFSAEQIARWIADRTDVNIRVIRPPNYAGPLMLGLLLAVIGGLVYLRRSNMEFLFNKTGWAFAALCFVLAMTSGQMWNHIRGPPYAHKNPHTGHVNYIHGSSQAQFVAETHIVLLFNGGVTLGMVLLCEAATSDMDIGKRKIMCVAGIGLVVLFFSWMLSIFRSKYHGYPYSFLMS
Protocol: (§1) Cells were plated in 10-cm cell culture dishes and grown to 60-80% confluency. For each condition, two biological replicates were harvested for co-IP. Cells were washed with PBS and 4 mL of lysis buffer (20 mM HEPES, 1% Triton X-100, 150 mM NaCl, 1 mM EDTA, and 10% glycerol) containing protease inhibitor cocktail was added. Cells were scraped and lysate was incubated at 4° C. under rotary agitation for 1 h. Lysate was centrifuged at 14,000×g for 10 min at 4° C. Supernatant was transferred to a new tube and an aliquot was taken as the input. […] For Western blots, 10 μg/mL Chicken Anti-FLAG (Aves labs ET-DY100) and IgY control (R&D Systems AB-101-C) antibodies were biotinylated (Thermo Fisher Scientific 90407) and added to the respective conditions. Lysates with antibodies were incubated at 4° C. under rotary agitation overnight. For each mL of lysate, 50 μL of Pierce Protein A/G Magnetic Beads (Mass spectrometry; Thermo Fisher Scientific 88803) or Pierce Streptavidin Magnetic Beads (Western blot; Thermo Fisher Scientific 88817) was washed twice with lysis buffer. Lysates with antibodies were added to the beads and incubated at 4° C. under rotary agitation for 4 h. Beads were washed with lysis buffer 3 times and resuspended in lysis buffer for storage.
(§2) Magnetic beads were resuspended in 100 mM Tris pH 7.8, reduced, alkylated and digested with trypsin at 37° ° C. overnight. This solution was subjected to solid phase extraction to concentrate the peptides and remove unwanted reagents followed by injection onto a Shimadzu HPLC with fraction collector. Eight fractions were collected and after concentration were injected on a Waters NanoAcquity HPLC equipped with a self-packed Aeris 3 μm C18 analytical column 0.075 mm by 20 cm, (Phenomenex). Peptides were eluted using standard reverse-phase gradients. The effluent from the column was analyzed using a Thermo Orbitrap Elite mass spectrometer (nanospray configuration) operated in a data dependent manner for 54 minutes. The resulting fragmentation spectra were correlated against the known database using Proteome Discover 1.4 (Thermo Fisher Scientific).

[2] = molecular target: T2, IPO13 (human, UniProt O94829 1-963)
T2 construct: also called NP_055467.3
T2 sequence (looked up): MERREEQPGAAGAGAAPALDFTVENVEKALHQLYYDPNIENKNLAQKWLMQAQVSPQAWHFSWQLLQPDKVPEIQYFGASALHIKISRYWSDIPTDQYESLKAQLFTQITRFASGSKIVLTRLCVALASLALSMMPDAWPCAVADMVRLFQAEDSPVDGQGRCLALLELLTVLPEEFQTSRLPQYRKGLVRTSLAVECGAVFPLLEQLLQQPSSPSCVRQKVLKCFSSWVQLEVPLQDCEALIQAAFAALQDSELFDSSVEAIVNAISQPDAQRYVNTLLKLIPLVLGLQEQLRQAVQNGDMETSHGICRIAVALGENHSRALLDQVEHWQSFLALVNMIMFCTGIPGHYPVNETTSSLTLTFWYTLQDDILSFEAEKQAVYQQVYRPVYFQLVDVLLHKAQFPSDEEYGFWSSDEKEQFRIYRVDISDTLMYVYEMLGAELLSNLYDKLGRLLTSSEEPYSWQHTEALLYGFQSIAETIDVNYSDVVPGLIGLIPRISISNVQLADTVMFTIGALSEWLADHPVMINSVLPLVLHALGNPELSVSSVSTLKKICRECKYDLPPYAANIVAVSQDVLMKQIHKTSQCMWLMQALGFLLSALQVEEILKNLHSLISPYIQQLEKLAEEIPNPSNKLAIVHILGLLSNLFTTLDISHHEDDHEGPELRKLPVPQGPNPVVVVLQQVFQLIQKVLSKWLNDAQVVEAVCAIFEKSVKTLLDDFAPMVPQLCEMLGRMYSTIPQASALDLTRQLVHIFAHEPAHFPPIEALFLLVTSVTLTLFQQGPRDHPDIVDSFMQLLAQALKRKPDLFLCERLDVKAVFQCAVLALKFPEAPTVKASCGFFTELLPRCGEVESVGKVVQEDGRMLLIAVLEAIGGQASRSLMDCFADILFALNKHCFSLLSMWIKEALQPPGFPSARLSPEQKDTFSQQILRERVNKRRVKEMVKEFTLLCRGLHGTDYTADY
Protocol: as §1, §2

[3] = molecular target: T3, CD70 (human, UniProt P32970 1-193)
T3 construct: also called NP_001243.1
T3 sequence (looked up): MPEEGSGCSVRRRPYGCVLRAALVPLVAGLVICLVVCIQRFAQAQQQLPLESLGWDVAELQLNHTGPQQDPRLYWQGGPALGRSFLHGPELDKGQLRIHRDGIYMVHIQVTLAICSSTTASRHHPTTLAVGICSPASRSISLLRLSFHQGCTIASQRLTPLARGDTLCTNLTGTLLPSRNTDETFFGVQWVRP
Protocol: as §1, §2

[4] = molecular target: T4, TOR1AIP2 (human, UniProt Q8NFQ8 2-470)
T4 construct: also called NP_001336864.1 (+1)
T4 sequence (Q8NFQ8 2-470 limits assumed): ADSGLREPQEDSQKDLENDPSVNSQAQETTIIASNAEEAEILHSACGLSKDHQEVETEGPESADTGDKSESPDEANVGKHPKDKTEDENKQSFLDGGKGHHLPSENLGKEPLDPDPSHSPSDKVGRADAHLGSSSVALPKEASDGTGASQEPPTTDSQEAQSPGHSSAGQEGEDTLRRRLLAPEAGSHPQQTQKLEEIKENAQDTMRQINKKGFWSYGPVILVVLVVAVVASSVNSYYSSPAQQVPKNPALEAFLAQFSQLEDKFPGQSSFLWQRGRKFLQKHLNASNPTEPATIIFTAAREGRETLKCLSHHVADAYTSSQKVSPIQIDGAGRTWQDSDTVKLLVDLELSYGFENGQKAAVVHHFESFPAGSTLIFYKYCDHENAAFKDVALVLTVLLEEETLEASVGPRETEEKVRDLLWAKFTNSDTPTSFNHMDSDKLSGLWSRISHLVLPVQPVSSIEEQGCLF
Protocol: as §1, §2

Measured: co-IP mass spectrometry count

B1: N-terminal FLAG tagged B3GNT2 (enzyme, human, UniProt Q9NY97 1-397, looked up)
chain: MSVGRRRIKLLGILMMANVFIYFIMEVSKSSSQEKNGKGEVIIPKEKFWKISTPPEAYWNREQEKLNRQYNPILSMLTNQTGEAGRLSNISHLNYCEPDLRVTSVVTGFNNLPDRFKDFLLYLRCRNYSLLIDQPDKCAKKPFLLLAIKSLTPHFARRQAIRESWGQESNAGNQTVVRVFLLGQTPPEDNHPDLSDMLKFESEKHQDILMWNYRDTFFNLSLKEVLFLRWVSTSCPDTEFVFKGDDDVFVNTHHILNYLNSLSKTKAKDLFIGDVIHNAGPHRDKKLKYYIPEVVYSGLYPPYAGGGGFLYSGHLALRLYHITDQVHLYPIDDVYTGMCLQKLGLVPEKHKGFRTFDIEEKNKNNICSYVDLMLVHSRKPQEMIDIWSQLQSAHLKC
notes: Bait of the co-IP; pulled down with mouse anti-FLAG (Millipore Sigma F3165) from cell lysate; also called N-FLAG B3GNT2; N-term FLAG; not shown: N-terminal FLAG tag
0: all assays above

From patent US20240261333A1 (published 2024)
